{"source": "patent US8722622B2", "about": "“FGF21 conjugates and anti-diabetic uses thereof” (COVX Technologies Ireland, Limited, priority 2010, dated 2014)", "molecules": {"B1": {"name": "FGF21ΔH: FGF21 with H1 absent (ΔH1), L146, SEQ ID NO:2; control protein (protein, listed as Homo sapiens)", "chain": "PIPDSSPLLQFGGQVRQRYLYTDDAQQTEAHLEIREDGTVGGAADQSPESLLQLKALKPGVIQILGVKTSRFLCQRPDGALYGSLHFDPEACSFRELLLEDGYNVYQSEAHGLPLHLPGNKSPHRDPAPRGPARFLPLPGLPPAPLEPPGILAPQPPDVGSSDPLSMVGPSQGRSPSYAS"}}, "key": {"[1]": {"test_system": "Differentiated 3T3-L1 adipocytes", "experiment": "Glucose uptake assay", "type": "cell-based", "details": "unconjugated protein; n in brackets", "procedure": "Differentiated 3T3-L1 adipocytes were treated with compounds in the absence of serum for 24 hrs. Cells were then incubated with ^14C-2-deoxyglucose for 1 hr and glucose uptake into the cells was quantitated in Wallac 1450 MicroBeta (Trilux) instrument. Glucose uptake was expressed in counts per min (CPM). EC50 values as measurements of the potency of the compounds were obtained from the dose response curves in the assay."}, "[2]": {"test_system": "Glut1 mRNA expression in differentiated 3T3-L1 adipocytes", "experiment": "Glut1 Taqman assay", "type": "cell-based", "procedure": "Differentiated 3T3-L1 adipocytes were used to measure the Glut1 mRNA expression by qPCR method. Overnight serum starved day 10-14 differentiated 3T3-L1 adipocytes were treated with compounds for 6 hrs. Total RNA was extracted from these cells, and Glut1 and GAPDH mRNA expression was measured using a Quantitect Probe RT-PCR kit and running a quantitative real time PCR reaction in a Taqman machine (Applied Biosystems®). The bioactivity of the compounds was determined by a fold change in Glut1 mRNA levels normalized by the GAPDH mRNA levels from each sample. EC50 values as measurements of the potency of the compounds were obtained from the dose response curves in the assay.\n3T3-L1 adipocytes were seeded at day 8 in 24-well tissue culture plates (Falcon®, Cat#353047), and incubated in DMEM complete medium (10% FBS, 2 mM L-glutamine, 1% P/S) at 37° C., 5% CO2. […] The medium was aspirated, and then RNA extracted from the cells using the RNeasy mini Kit according to the manufacturer's instructions. RNA was measured at A260 nm using the Spectramax® Plus spectrophotometer."}, "[3]": {"test_system": "obese insulin resistant (pre-diabetic) cynomolgus macaques", "type": "in vivo, Macaca fascicularis", "details": "0.3 mg/kg QD", "procedure": "[…] adult cynomolgus monkeys (Macaca fascicularis) were included in the study. The monkeys (13 male, 11 female) were stratified into four treatment groups of 6 individuals, based on sex, body weight, and basal glycemic and lipid indices measured in a baseline plasma sample collected 2 weeks prior to the start of dosing. Animals were maintained on a high fat diet. Animals were dosed for 4 weeks followed by a 4 week washout period.\nBlood samples were collected weekly during the dosing and washout periods, with the exception that no samples were collected at week 3 of washout. After an overnight fast (16-18 h), monkeys were sedated with ketamine 10-15 mg/kg by intramuscular (IM) injection. Body weights were recorded and blood (5 mL) was collected via percutaneous femoral venipuncture into ethylenediaminetetraacetic acid (EDTA) treated Vacutainer tubes pretreated with ˜1.8 trypsin inhibitor units (TIU) Aprotinin (Sigma 0.6 TIU per mL whole blood). Tubes were immediately placed on ice. Plasma was prepared by centrifugation, with the resulting plasma aliquoted and frozen at −80° C.\nData were treated in the same way for each pharmacodynamic endpoint. The baseline value for each individual monkey was subtracted from each timepoint to give a value corresponding to change from baseline. Changes from baseline values were averaged for each timepoint in each treatment group and standard error of the mean (SEM) calculated. Results are reported as mean change from baseline±SEM for each treatment group over the timecourse of the study. […] As there was no vehicle control group for the FGF21ΔH treated animals, the raw data and not the change from baseline value was used to assess statistical significance. In this case a student's T-test (two sided, paired sample) was carried out vs. baseline. […]\nPlasma fructosamine was measured via an enzymatic colorimetric method using the Ace Alera Clinical Chemistry Analyzer using a kit from Roche Diagnostics®(Mannheim, Germany) according to manufacturer's instructions. […] Significant reduction in plasma fructosamine levels over time indicates improved glycemic control. […]\nTPC levels were measured using enzymatic methods on the Ace Alera analyzer. There was a significant decrease in TPC after 1 week of treatment in all treatment groups (FIG. 9H).\nTG levels were measured using enzymatic methods on the Ace Alera analyzer.\nNon-esterified free fatty acids (FFA) were measured using enzymatic methods on a Roche Cobas® C311 clinical chemistry analyzer using protocols and reagents from Wako® (Wako Diagnostics, Richmond, Va.) according to manufacturer's instructions.\nHDL levels were measured using enzymatic methods on the Ace Alera analyzer. There was no significant change in HDL cholesterol over the treatment period in any of the treatment groups.\nLDL levels were measured using enzymatic methods on the Ace Alera analyzer.\nTOTK were measured using enzymatic methods on a Roche Cobas® C311 clinical chemistry analyzer using protocols and reagents from Wako®.\nAdiponectin levels were determined using a Mercodia® ELISA kit.\nC-reactive protein (CRP) was measured using an ELISA kit from ALPCO Diagnostics® (Salem, N.H.) according to manufacturer's instructions. […] Levels trended back to baseline during the washout phase.\nLeptin was measured by Luminex® technology (Millipore® catalogue number HMH-34K) with protocols and reagents according to manufacturer's instructions.\nAdipsin levels were measured using and R&D Systems® (Minneapolis Minn.) human complement factor D Quantikine kit (catalogue number DFD00) according to manufacturer's instructions. […] The levels trended back towards baseline during the washout phase."}, "ob/ob mice": {"test_system": "ob/ob mice", "experiment": "Mouse efficacy in ob/ob mice (OGTT, body weight, liver, gene expression)", "type": "in vivo", "procedure": "The efficacy of FGF21 antibodies conjugates was evaluated in two murine obese insulin resistant models—ob/ob mice and high-fat diet-induced obese mice. For both models, male mice (6-8 weeks of age for ob/ob, 12-14 weeks of age for DIO with high-fat diet initiated at 6 weeks of age) were housed 2-4/cage and FGF21 antibody conjugates were administered by SC injection. Body weight was measured daily in the morning. Glucose tolerance was assessed by oral glucose tolerance test. Briefly, mice were fasted for 4-5 hrs in the morning of the day of testing. A basal blood sample was obtained and blood glucose levels were determined using a portable glucometer. Following basal sample, glucose was administered by oral gavage, and blood samples were drawn from 15 to 120 mins thereafter.\nFor […] expression, frozen visceral WAT samples collected from the in vivo efficacy studies were homogenized. Total RNA was extracted from the tissue homogenates, and Glut1 and GAPDH mRNA expression was measured using a Quantitect Probe RT-PCR kit and running a quantitative real time PCR reaction in a Taqman machine (Applied Biosystems). The effect of treatment was determined by a fold change in Glut1 mRNA levels normalized by the GAPDH mRNA levels from each sample."}, "[4]": {"details": "ob/ob mice liver, day 6, qPCR, 1 mg/kg QD"}}, "note": "Like-named read-outs stand apart in the source and are kept apart here.", "data": [{"molecule": "B1", "values": [{"measurement": "EC50", "setting": "[1]", "value": 12, "unit": "nM"}, {"measurement": "EC50", "setting": "[2]; 3T3-L1 adipocytes, 6 hrs, Taqman quantitative real-time PCR, read-out: Glut1 RNA expression EC50", "value": 3.39, "unit": "nM"}, {"measurement": "Glut1 induction in 3T3-L1 adipocytes", "setting": "[2]; 6 hrs", "value": "dose-dependent Glut1 induction"}, {"measurement": "EC50", "setting": "[2]; unconjugated protein, n in brackets, read-out: Glut1 Taqman unconjugated Protein EC50", "value": 2.3, "unit": "nM"}, {"measurement": "LDL cholesterol", "setting": "[3]", "value": "significant decrease in LDL cholesterol levels was only observed after 1 week of treatment"}, {"measurement": "non-esterified free fatty acids (FFA)", "setting": "[3]", "value": "significantly increased over the first 2 weeks of treatment"}, {"measurement": "plasma adiponectin", "setting": "[3]", "value": "trended upwards"}, {"measurement": "body weight", "setting": "[3]; 4 weeks, vs baseline", "value": "significant decrease in body weight"}, {"measurement": "plasma fructosamine", "setting": "[3]; after 3 weeks", "value": "significantly reduced"}, {"measurement": "triglycerides (TG)", "setting": "[3]; dosing period", "value": "significant decrease in TG"}, {"measurement": "total ketone bodies (TOTK)", "setting": "[3]; first 3 weeks of treatment", "value": "significantly increased"}, {"measurement": "plasma leptin", "setting": "[3]; not significant", "value": "decreased"}, {"measurement": "plasma C-reactive protein (CRP)", "setting": "[3]; significance only at 1 week washout", "value": "decreased"}, {"measurement": "GTT* (% AUC of Ctrl)", "setting": "ob/ob mice; 1 mg/kg Qd (FGF21dH protein)", "value": "67 % AUC of Ctrl"}, {"measurement": "Mean fold changes of mRNA expression, FoxA2", "setting": "ob/ob mice; [4]", "value": 1.23, "unit": "fold"}, {"measurement": "Mean fold changes of mRNA expression, MOGAT2", "setting": "ob/ob mice; [4]", "value": 0.37, "unit": "fold"}, {"measurement": "Mean fold changes of mRNA expression, SCD1", "setting": "ob/ob mice; [4]", "value": 0.95, "unit": "fold"}, {"measurement": "Mean Glucose AUC (% of vehicle control)", "setting": "ob/ob mice; ob/ob mice, OGTT day 6, 1 mg/kg QD", "value": "61 % of vehicle control"}, {"measurement": "Body weight change from day −1", "setting": "ob/ob mice; ob/ob mice, day 6, 1 mg/kg QD", "value": 4.7}, {"measurement": "Glucose AUC during OGTT", "setting": "ob/ob mice; ob/ob mice, day 6, 1 mg/kg QD", "value": 67}, {"measurement": "Liver Weight", "setting": "ob/ob mice; ob/ob mice, day 6, 1 mg/kg QD", "value": 1.8, "unit": "g"}, {"measurement": "Triglycerides content in liver", "setting": "ob/ob mice; ob/ob mice, day 6, 1 mg/kg QD", "value": 37.0}, {"measurement": "UCP1 mRNA expression in WAT", "setting": "ob/ob mice; ob/ob mice, day 6, 1 mg/kg QD", "value": 2.6}, {"measurement": "Mean Glucose AUC (% of vehicle control) during OGTT", "setting": "ob/ob mice; ob/ob mice, single SC dose 0.6 mg/kg (FIG. 4A)", "value": "103 % of vehicle control"}, {"measurement": "Cumulative body weight change, mean body weight", "setting": "ob/ob mice; ob/ob mice, single SC dose 0.6 mg/kg (FIG. 5A)", "value": 3.2, "unit": "g"}, {"measurement": "mean liver weight", "setting": "ob/ob mice; ob/ob mice, single SC dose 0.6 mg/kg (FIG. 5B)", "value": 2.4, "unit": "g"}, {"measurement": "Cumulative body weight change, mean body weight", "setting": "ob/ob mice; ob/ob mice, single SC dose 1 mg/kg (FIG. 5A)", "value": 2.5, "unit": "g"}, {"measurement": "mean liver weight", "setting": "ob/ob mice; ob/ob mice, single SC dose 1 mg/kg (FIG. 5B)", "value": 2.2, "unit": "g"}, {"measurement": "Mean Glucose AUC (% of vehicle control) during OGTT", "setting": "ob/ob mice; ob/ob mice, single SC dose 1 mg/kg (FIGS. 4A, 4B)", "value": "74 % of vehicle control"}, {"measurement": "Cumulative body weight change, mean body weight", "setting": "ob/ob mice; ob/ob mice, single dose, dose not printed (FIG. 6A)", "value": 1.9, "unit": "g"}, {"measurement": "mean glucose AUC % during OGTT", "setting": "ob/ob mice; ob/ob mice, single dose, dose not printed (FIG. 6B)", "value": 63, "unit": "%"}]}]}
